Assay results as given in the supplement of paper PMC5998384.

How the values were obtained:
HeLa Kyoto [1] = assay: solubility change mitosis vs G1/S (difference of NP-40 vs SDS log2 ratios) (log2 ratio difference); higher = more soluble in mitosis
HeLa Kyoto [2] = assay: melting temperature (median over replicates), in situ; higher = more thermally stable
HeLa Kyoto [3] = assay: solubility in G1/S (NP-40 vs SDS abundance) (log2 ratio); higher = more soluble; conditions: cell cycle stage: G1/S
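For melting temperature (median over replicates), in situ in this document: HeLa Kyoto cells synchronized by double thymidine or nocodazole block, proteins quantified by TMT10plex mass spectrometry, three independent biological replicates.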
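For solubility change mitosis vs G1/S (difference of NP-40 vs SDS log2 ratios) in this document: synchronized HeLa Kyoto cells (double thymidine block for G1/S, nocodazole release for mitosis), protein amounts in NP-40 versus SDS lysates quantified by mass spectrometry, three biological replicates.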
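For solubility in G1/S (NP-40 vs SDS abundance) in this document: HeLa Kyoto cells arrested at G1/S by double thymidine block, proteins quantified by TMT10plex mass spectrometry in mild NP-40 versus SDS extracts, three biological replicates.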

For “MRASLLLSVLRPAGPVAVGISLGFTLSLLSVTWVEEPCGPGPPQPGDSELPPRGNTNAARRPNSVQPGAEREKPGAGEGAGENWEPRVLPYHPAQPGQAAKKAVRTRYISTELGIRQRLLVAVLTSQTTLPTLGVAVNRTLGHRLERVVFLTGARGRRAPPGMAVVTLGEERPIGHLHLALRHLLEQHGDDFDWFFLVPDTTYTEAHGLARLTGHLSLASAAHLYLGRPQDFIGGEPTPGRYCHGGFGVLLSRMLLQQLRPHLEGCRNDIVSARPDEWLGRCILDATGVGCTGDHEGVHYSHLELSPGEPVQEGDPHFRSALTAHPVRDPVHMYQLHKAFARAELERTYQEIQELQWEIQNTSHLAVDGDQAAAWPVGIPAPSRPASRFEVLRWDYFTEQHAFSCADGSPRCPLRGADRADVADVLGTALEELNRRYHPALRLQKQQLVNGYRRFDPARGMEYTLDLQLEALTPQGGRRPLTRRVQLLRPLSRVEILPVPYVTEASRLTVLLPLAAAERDLAPGFLEAFATAALEPGDAAAALTLLLLYEPRQAQRVAHADVFAPVKAHVAELERRFPGARVPWLSVQTAAPSPLRLMDLLSKKHPLDTLFLLAGPDTVLTPDFLNRCRMHAISGWQAFFPMHFQAFHPAVAPPQGPGPPELGRDTGRFDRQAASEACFYNSDYVAARGRLAAASEQEEELLESLDVYELFLHFSSLHVLRAVEPALLQRYRAQTCSARLSEDLYHRCLQSVLEGLGSRTQLAMLLFEQEQGNST [CHPF]”, the “solubility change mitosis (log2)” value (HeLa Kyoto [1]) was 0.15, the melting temperature (HeLa Kyoto [2]; cell cycle stage: G1/S) was 53.4 °C and the melting temperature (HeLa Kyoto [2]; cell cycle stage: mitosis) was 52 °C. The “solubility in G1/S (log2)” value (HeLa Kyoto [3]) was -0.013.
For “MRDNTSPISVILVSSGSRGNKLLFRYPFQRSQEHPASQTSKPRSRYAASNTGDHADEQDGDSRFSDVILATILATKSEMCGQKFELKIDNVRFVGHPTLLQHALGQISKTDPSPKREAPTMILFNVVFALRANADPSVINCLHNLSRRIATVLQHEERRCQYLTREAKLILALQDEVSAMADGNEGPQSPFHHILPKCKLARDLKEAYDSLCTSGVVRLHINSWLEVSFCLPHKIHYAASSLIPPEAIERSLKAIRPYHALLLLSDEKSLLGELPIDCSPALVRVIKTTSAVKNLQQLAQDADLALLQVFQLAAHLVYWGKAIIIYPLCENNVYMLSPNASVCLYSPLAEQFSHQFPSHDLPSVLAKFSLPVSLSEFRNPLAPAVQETQLIQMVVWMLQRRLLIQLHTYVCLMASPSEEEPRPREDDVPFTARVGGRSLSTPNALSFGSPTSSDDMTLTSPSMDNSSAELLPSGDSPLNQRMTENLLASLSEHERAAILSVPAAQNPEDLRMFARLLHYFRGRHHLEEIMYNENTRRSQLLMLFDKFRSVLVVTTHEDPVIAVFQALLP [NPRL3]”, the “solubility change mitosis (log2)” value (HeLa Kyoto [1]) was 0.129, the melting temperature (HeLa Kyoto [2]; cell cycle stage: G1/S) was 50.8 °C and the melting temperature (HeLa Kyoto [2]; cell cycle stage: mitosis) was 52.5 °C. The “solubility in G1/S (log2)” value (HeLa Kyoto [3]) was -0.108.
“MRGAGPSPRQSPRTLRPDPGPAMSFFRRKVKGKEQEKTSDVKSIKASISVHSPQKSTKNHALLEAAGPSHVAINAISANMDSFSSSRTATLKKQPSHMEAAHFGDLGRSCLDYQTQETKSSLSKTLEQVLHDTIVLPYFIQFMELRRMEHLVKFWLEAESFHSTTWSRIRAHSLNTVKQSSLAEPVSPSKKHETTASFLTDSLDKRLEDSGSAQLFMTHSEGIDLNNRTNSTQNHLLLSQECDSAHSLRLEMARAGTHQVSMETQESSSTLTVASRNSPASPLKELSGKLMKSIEQDAVNTFTKYISPDAAKPIPITEAMRNDIIARICGEDGQVDPNCFVLAQSIVFSAMEQEHFSEFLRSHHFCKYQIEVLTSGTVYLADILFCESALFYFSEYMEKEDAVNILQFWLAADNFQSQLAAKKGQYDGQEAQNDAMILYDKYFSLQATHPLGFDDVVRLEIESNICREGGPLPNCFTTPLRQAWTTMEKVFLPGFLSSNLYYKYLNDLIHSVRGDEFLGGNVSLTAPGSVGPPDESHPGSSDSSASQSSVKKASIKILKNFDEAIIVDAASLDPESLYQRTYAGKMTFGRVSDLGQFIRESEPEPDVRKSKGSMFSQAMKKWVQGNTDEAQEELAWKIAKMIVSDIMQQAQYDQPLEKSTKL [AKAP10]” was tested, and the “solubility change mitosis (log2)” value (HeLa Kyoto [1]) was -0.166, the melting temperature (HeLa Kyoto [2]; cell cycle stage: mitosis) was 49.8 °C and the “solubility in G1/S (log2)” value (HeLa Kyoto [3]) was 0.00407.
For “MRLAGPLRIVVLVVSVGVTWIVVSILLGGPGSGFPRIQQLFTSPESSVTAAPRARKYKCGLPQPCPEEHLAFRVVSGAANVIGPKICLEDKMLMSSVKDNVGRGLNIALVNGVSGELIEARAFDMWAGDVNDLLKFIRPLHEGTLVFVASYDDPATKMNEETRKLFSELGSRNAKELAFRDSWVFVGAKGVQNKSPFEQHVKNSKHSNKYEGWPEALEMEGCIPRRSTAS [FAM3A]”, the “solubility change mitosis (log2)” value (HeLa Kyoto [1]) was -0.0146, the melting temperature (HeLa Kyoto [2]; cell cycle stage: G1/S) was 51.9 °C and the melting temperature (HeLa Kyoto [2]; cell cycle stage: mitosis) was 52.8 °C. The “solubility in G1/S (log2)” value (HeLa Kyoto [3]) was -0.0403.
For “MRMSDTVTVKDETATMKDLEAEVKDTTRVENLIKSENYGKILVEKNEHCIENNIDLQRPLQSFGQTGKRSKSSSKLKLVRSLAVCEESPPPPAPEISQENQEKIQIQLTQSFEKEEKPSKDEAEKEKASDKLPRKMLSRDSSQEYTDSTGIDLHEFLVNTLKNNPRDRMMLLKLEQEILDFIGNNESPRKKFPPMTSYHRMLLHRVAAYFGLDHNVDQSGKSVIVNKTSNTRIPDQKFNEHIKDDKGEDFQKRYILKRDNSSFDKDDNQMRIRLKDDRRSKSIEEREEEYQRARDRIFSQDSLCSQENYIIDKRLQDEDASSTQQRRQIFRVNKDASGRSTNSHQSSTENELKYSEPRPWSSTDSDSSLRNLKPAVTKASSFSGISVLTRGDSSGSSKSIGRLSKTGSESSGSVGSSTGSLSHIQQPLPGTALSQSSHGAPVVYPTVSTHSSLSFDGGLNGQVASPSTSFFLLPLEAAGIPPGSILINPQTGQPFINPDGSPVVYNPPMTQQPVRSQVPGPPQPPLPAPPQQPAANHIFSQDNLGSQFSHMSLARQPSADGSDPHAAMFQSTVVLQSPQQSGYIMTAAPPPHPPPPPPPPPPPPPLPPGQPVPTAGYPASGHPVSQPVLQQQGYIQQPSPQMPACYCAPGHYHSSQPQYRPVPSVHYNSHLNQPLPQPAQQTGYQVIPNQQQNYQGIVGVQQPQSQSLVSGQPNSIGNQIQGVVIPYTSVPTYQVSLPQGSQGIPHQTYQQPVMFPNQSNQGSMPTTGMPVYYSVIPPGQQNNLSSSVGYLQHPGSEQVQFPRTTSPCSSQQLQGHQCTAGPPPPPGGGMVMMQLSVPNNPQSCAHSPPQWKQNKYYCDHQRGQKCVEFSSVDNIVQHSPQLSSPIISPAQSPAPAQLSTLKTVRPSGPPLSIMPQFSRPFVPGQGDSRYPLLGQPLQYNPPAVLHGHIPNQQGQPGSRHGNRGRRQAKKAASTDLGAGETVVGKVLEITELPDGITRMEAEKLFGELFKIGAKIRWLRDPQSQPRRHPLCCGSGDNTANPERSKPSDLASTYTVLATFPSISAAQNALKKQINSVNKFKLRTSKKHYDFHILERASSQ [R3HDM1]”, the “solubility change mitosis (log2)” value (HeLa Kyoto [1]) was -0.239, the melting temperature (HeLa Kyoto [2]; cell cycle stage: G1/S) was 52.3 °C and the melting temperature (HeLa Kyoto [2]; cell cycle stage: mitosis) was 50.9 °C. The “solubility in G1/S (log2)” value (HeLa Kyoto [3]) was 0.189.
“MRRSAAPSQLQGNSFKKPKFIPPGRSNPGLNEEITKLNPDIKLFEGVAINNTFLPSQNDLRICSLNLPSEESTREINNRDNCSGKYCFEAPTLATLDPPHTVHSAPKEVAVSKEQEEKSDSLVKYFSVVWCKPSKKKHKKWEGDAVLIVKGKSFILKNLEGKDIGRGIGYKFKELEKIEEGQTLMICGKEIEVMGVISPDDFSSGRCFQLGGGSTAISHSSQVARKCFSNPFKSVCKPSSKENRQNDFQNCKPRHDPYTPNSLVMPRPDKNHQWVFNKNCFPLVDVVIDPYLVYHLRPHQKEGIIFLYECVMGMRMNGRCGAILADEMGLGKTLQCISLIWTLQCQGPYGGKPVIKKTLIVTPGSLVNNWKKEFQKWLGSERIKIFTVDQDHKVEEFIKSIFYSVLIISYEMLLRSLDQIKNIKFDLLICDEGHRLKNSAIKTTTALISLSCEKRIILTGTPIQNDLQEFFALIDFVNPGILGSLSSYRKIYEEPIILSREPSASEEEKELGERRAAELTCLTGLFILRRTQEIINKYLPPKIENVVFCRPGALQIELYRKLLNSQVVRFCLQGLLENSPHLICIGALKKLCNHPCLLFNSIKEKECSSTCDKNEEKSLYKGLLSVFPADYNPLLFTEKESGKLQVLSKLLAVIHELRPTEKVVLVSNYTQTLNILQEVCKRHGYAYTRLDGQTPISQRQQIVDGFNSQHSSFFIFLLSSKAGGVGLNLIGGSHLILYDIDWNPATDIQAMSRVWRDGQKYPVHIYRLLTTGTIEEKIYQRQISKQGLCGAVVDLTKTSEHIQFSVEELKNLFTLHESSDCVTHDLLDCECTGEEVHTGDSLEKFIVSRDCQLGPHHQKSNSLKPLSMSQLKQWKHFSGDHLNLTDPFLERITENVSFIFQNITTQATGT [RAD54B]” was tested, and the “solubility change mitosis (log2)” value (HeLa Kyoto [1]) was -0.0255, the melting temperature (HeLa Kyoto [2]; cell cycle stage: G1/S) was 46.5 °C and the melting temperature (HeLa Kyoto [2]; cell cycle stage: mitosis) was 48.1 °C. The “solubility in G1/S (log2)” value (HeLa Kyoto [3]) was -0.106.
With “MSAKPEVSLVREASRQIVAGGSAGLVEICLMHPLDVVKTRFQIQRCATDPNSYKSLVDSFRMIFQMEGLFGFYKGILPPILAETPKRAVKFFTFEQYKKLLGYVSLSPALTFAIAGLGSGLTEAIVVNPFEVVKVGLQANRNTFAEQPSTVGYARQIIKKEGWGLQGLNKGLTATLGRHGVFNMVYFGFYYNVKNMIPVNKDPILEFWRKFGIGLLSGTIASVINIPFDVAKSRIQGPQPVPGEIKYRTCFKTMATVYQEEGILALYKGLLPKIMRLGPGGAVMLLVYEYTYSWLQENW [SLC25A21]” the “solubility change mitosis (log2)” value (HeLa Kyoto [1]) was -0.00648, the melting temperature (HeLa Kyoto [2]; cell cycle stage: G1/S) was 56.9 °C and the melting temperature (HeLa Kyoto [2]; cell cycle stage: mitosis) was 55.7 °C. The “solubility in G1/S (log2)” value (HeLa Kyoto [3]) was -0.251.
With “MSATSVDTQRTKGQDNKVQNGSLHQKDTVHDNDFEPYLTGQSNQSNSYPSMSDPYLSSYYPPSIGFPYSLNEAPWSTAGDPPIPYLTTYGQLSNGDHHFMHDAVFGQPGGLGNNIYQHRFNFFPENPAFSAWGTSGSQGQQTQSSAYGSSYTYPPSSLGGTVVDGQPGFHSDTLSKAPGMNSLEQGMVGLKIGDVSSSAVKTVGSVVSSVALTGVLSGNGGTNVNMPVSKPTSWAAIASKPAKPQPKMKTKSGPVMGGGLPPPPIKHNMDIGTWDNKGPVPKAPVPQQAPSPQAAPQPQQVAQPLPAQPPALAQPQYQSPQQPPQTRWVAPRNRNAAFGQSGGAGSDSNSPGNVQPNSAPSVESHPVLEKLKAAHSYNPKEFEWNLKSGRVFIIKSYSEDDIHRSIKYSIWCSTEHGNKRLDSAFRCMSSKGPVYLLFSVNGSGHFCGVAEMKSPVDYGTSAGVWSQDKWKGKFDVQWIFVKDVPNNQLRHIRLENNDNKPVTNSRDTQEVPLEKAKQVLKIISSYKHTTSIFDDFAHYEKRQEEEEVVRKERQSRNKQ [YTHDF1]” the “solubility change mitosis (log2)” value (HeLa Kyoto [1]) was -0.0272, the melting temperature (HeLa Kyoto [2]; cell cycle stage: mitosis) was 47.8 °C and the “solubility in G1/S (log2)” value (HeLa Kyoto [3]) was 0.14.
With “MSEAYFRVESGALGPEENFLSLDDILMSHEKLPVRTETAMPRLGAFFLERSAGAETDNAVPQGSKLELPLWLAKGLFDNKRRILSVELPKIYQEGWRTVFSADPNVVDLHKMGPHFYGFGSQLLHFDSPENADISQSLLQTFIGRFRRIMDSSQNAYNEDTSALVARLDEMERGLFQTGQKGLNDFQCWEKGQASQITASNLVQNYKKRKFTDMED [GINS3]” the “solubility change mitosis (log2)” value (HeLa Kyoto [1]) was 0.225, the melting temperature (HeLa Kyoto [2]; cell cycle stage: G1/S) was 51.7 °C and the melting temperature (HeLa Kyoto [2]; cell cycle stage: mitosis) was 51.7 °C. The “solubility in G1/S (log2)” value (HeLa Kyoto [3]) was 0.471.
“MSEEEQGSGTTTGCGLPSIEQMLAANPGKTPISLLQEYGTRIGKTPVYDLLKAEGQAHQPNFTFRVTVGDTSCTGQGPSKKAAKHKAAEVALKHLKGGSMLEPALEDSSSFSPLDSSLPEDIPVFTAAAAATPVPSVVLTRSPPMELQPPVSPQQSECNPVGALQELVVQKGWRLPEYTVTQESGPAHRKEFTMTCRVERFIEIGSGTSKKLAKRNAAAKMLLRVHTVPLDARDGNEVEPDDDHFSIGVGSRLDGLRNRGPGCTWDSLRNSVGEKILSLRSCSLGSLGALGPACCRVLSELSEEQAFHVSYLDIEELSLSGLCQCLVELSTQPATVCHGSATTREAARGEAARRALQYLKIMAGSK [TARBP2]” was tested, and the “solubility change mitosis (log2)” value (HeLa Kyoto [1]) was 0.129, the melting temperature (HeLa Kyoto [2]; cell cycle stage: mitosis) was 51.7 °C and the “solubility in G1/S (log2)” value (HeLa Kyoto [3]) was 0.152.
